Source: the RNAGym collection of RNA variant scans (doi:10.7554/elife.80360)

B1: CPEB3 Ribozyme (parent)
chain: GGGGGCCACAGCAGAAGCGUUCACGUCGCGGCCCCUGUCAGAUUCUGGUGAAUCUGCGAAUUCUGCUGU

Variants of: B1
Experiment: self-cleavage, relative activity (ratio to wild type); higher = more cleavage; co-transcriptional

Q: For GGGGGCCACAGCAGAAGCGUUCACGUCGCGGCACCAGUCAGAUUCUGGUGAAUCUGCGAAUUCUGCUGU [C33A U36A], which self-cleavage is on record?
A: Its self-cleavage is 0.157.

Q: With GGGGGCCACAGCAGAAGCGUUCACGUCGCGGUCCCUGUCAGAUUCUGGAGAAUCUGCGAAUUCUGCUGU [C32U U49A] as the variant, how does the self-cleavage read?
A: The self-cleavage was 1.01.

Q: With GGGGGCCACAGCAGAAGCGUUCACGUCGCGGUCCCUGUCAGAUUCUGGUGAAUCUGCGAAUUCUGCAGU [C32U U67A] as the variant, how does the self-cleavage read?
A: Its self-cleavage is 0.987.

Q: With GGGGGCCACAGCAGAAGCGUUCACGUCGCGGCACCUGGCAGAUUCUGGUGAAUCUGCGAAUUCUGCUGU [C33A U38G] as the variant, how does the self-cleavage read?
A: The self-cleavage was 0.212.

Q: Which self-cleavage does the source give for GGGGGCCACAGCAGAAGCGUUCACGUCGCGGUCCCUGUCAGAUUCUGGUGAAACUGCGAAUUCUGCUGU [C32U U53A] here?
A: Its self-cleavage is 0.982.

Q: For GGGGGCCACAGCAGAAGCGUUCACGUCGCGGUCCCUGUCAGAUUCUGGUGAAGCUGCGAAUUCUGCUGU [C32U U53G], which self-cleavage is on record?
A: Its self-cleavage is 0.967.

Q: With GGGGGCCACAGCAGAAGCGUUCACGUCGCGGCACCUGUCAGAUUCUGGUGAAUCUGCGAAUUCUGCUGC [C33A U69C] as the variant, how does the self-cleavage read?
A: The self-cleavage was 1.04.

Q: Which self-cleavage does the source give for GGGGGCCACAGCAGAAGCGUUCACGUCGCGGCACCUGUCGGAUUCUGGUGAAUCUGCGAAUUCUGCUGU [C33A A40G] here?
A: The self-cleavage was 0.748.

Q: With GGGGGCCACAGCAGAAGCGUUCACGUCGCGGCACCUGUCAGAUUCUGGUGAAUCUGCGCAUUCUGCUGU [C33A A59C] as the variant, how does the self-cleavage read?
A: The self-cleavage was 0.322.

Q: For GGGGGCCACAGCAGAAGCGUUCACGUCGCGGCACCUGUCAGAUUCUGGUGAAUCUGCGAAUACUGCUGU [C33A U62A], which self-cleavage is on record?
A: The self-cleavage was 0.566.

Q: With GGGGGCCACAGCAGAAGCGUUCACGUCGCGGCACCUGUCAGAGUCUGGUGAAUCUGCGAAUUCUGCUGU [C33A U43G] as the variant, how does the self-cleavage read?
A: Its self-cleavage is 0.361.

Q: For GGGGGCCACAGCAGAAGCGUUCACGUCGCGGCACCUGUCAGACUCUGGUGAAUCUGCGAAUUCUGCUGU [C33A U43C], which self-cleavage is on record?
A: The self-cleavage was 0.461.

Q: With GGGGGCCACAGCAGAAGCGUUCACGUCGCGGUCCCUGUCAGAUUCUGGUGAAUCUGCGAAUUCUGCUGC [C32U U69C] as the variant, how does the self-cleavage read?
A: The self-cleavage was 1.06.

Q: For GGGGGCCACAGCAGAAGCGUUCACGUCGCGGUCCCUGUCAGAUUCUGGUGAAUCUGCGAAUUCUGCUGG [C32U U69G], which self-cleavage is on record?
A: The self-cleavage was 1.03.

Q: Which self-cleavage does the source give for GGGGGCCACAGCAGAAGCGUUCACGUCGCGGCACCUGUCAGAUUCUGGUGAAACUGCGAAUUCUGCUGU [C33A U53A] here?
A: The self-cleavage was 0.392.

Q: For GGGGGCCACAGCAGAAGCGUUCACGUCGCGGCACCUGUCAGAUUCUGGUGAACCUGCGAAUUCUGCUGU [C33A U53C], which self-cleavage is on record?
A: Its self-cleavage is 0.48.

Q: Which self-cleavage does the source give for GGGGGCCACAGCAGAAGCGUUCACGUCGCGGCACCUGUCAGAUUCUGGUGAAGCUGCGAAUUCUGCUGU [C33A U53G] here?
A: The self-cleavage was 0.346.

Q: For GGGGGCCACAGCAGAAGCGUUCACGUCGCGGCACGUGUCAGAUUCUGGUGAAUCUGCGAAUUCUGCUGU [C33A C35G], which self-cleavage is on record?
A: The self-cleavage was 0.204.

Q: With GGGGGCCACAGCAGAAGCGUUCACGUCGCGGCACUUGUCAGAUUCUGGUGAAUCUGCGAAUUCUGCUGU [C33A C35U] as the variant, how does the self-cleavage read?
A: Its self-cleavage is 0.442.

Q: Which self-cleavage does the source give for GGGGGCCACAGCAGAAGCGUUCACGUCGCGGCACAUGUCAGAUUCUGGUGAAUCUGCGAAUUCUGCUGU [C33A C35A] here?
A: Its self-cleavage is 0.151.

Q: For GGGGGCCACAGCAGAAGCGUUCACGUCGCGGUCCCUGUCAGAUUCUGGUGAAUCUGCGAAUUCGGCUGU [C32U U64G], which self-cleavage is on record?
A: Its self-cleavage is 1.01.

Q: With GGGGGCCACAGCAGAAGCGUUCACGUCGCGGCACCUGUCAGAUUCUGGUGAAUCUGCGAAUUCUGAUGU [C33A C66A] as the variant, how does the self-cleavage read?
A: Its self-cleavage is 0.76.

Q: Which self-cleavage does the source give for GGGGGCCACAGCAGAAGCGUUCACGUCGCGGCACCUGUCAGAUUCUGGUGAAUCUGCGAAUUCUGGUGU [C33A C66G] here?
A: The self-cleavage was 0.665.

Q: For GGGGGCCACAGCAGAAGCGUUCACGUCGCGGCACCUGUCAGAUUCUGGUGAAUCUGCGAAUUCUGUUGU [C33A C66U], which self-cleavage is on record?
A: The self-cleavage was 0.901.

Q: For GGGGGCCACAGCAGAAGCGUUCACGUCGCGGCACCUGUCAGAUUCUGGUGAAUCAGCGAAUUCUGCUGU [C33A U55A], which self-cleavage is on record?
A: The self-cleavage was 0.486.

Q: With GGGGGCCACAGCAGAAGCGUUCACGUCGCGGCACCUGUCAGAUUCUGGUGAAUCGGCGAAUUCUGCUGU [C33A U55G] as the variant, how does the self-cleavage read?
A: The self-cleavage was 0.319.

Q: With GGGGGCCACAGCAGAAGCGUUCACGUCGCGGCACCUGUCAGAUUCUGGUGAAUCCGCGAAUUCUGCUGU [C33A U55C] as the variant, how does the self-cleavage read?
A: The self-cleavage was 0.438.

Q: For GGGGGCCACAGCAGAAGCGUUCACGUCGCGGUCCCUGUCAGAUUCUGGUGAAUCUGCGAAGUCUGCUGU [C32U U61G], which self-cleavage is on record?
A: The self-cleavage was 0.829.

Q: With GGGGGCCACAGCAGAAGCGUUCACGUCGCGGUCCCUGUCAGAUUCUGGUGAAUCUGCGAACUCUGCUGU [C32U U61C] as the variant, how does the self-cleavage read?
A: The self-cleavage was 0.856.

Q: With GGGGGCCACAGCAGAAGCGUUCACGUCGCGGCACCUGUCAAAUUCUGGUGAAUCUGCGAAUUCUGCUGU [C33A G41A] as the variant, how does the self-cleavage read?
A: Its self-cleavage is 0.349.

Q: For GGGGGCCACAGCAGAAGCGUUCACGUCGCGGCACCUGUCAUAUUCUGGUGAAUCUGCGAAUUCUGCUGU [C33A G41U], which self-cleavage is on record?
A: Its self-cleavage is 0.562.

Q: With GGGGGCCACAGCAGAAGCGUUCACGUCGCGGCACCUGUCAGAUUCUGGUGAAUCUGCGAAAUCUGCUGU [C33A U61A] as the variant, how does the self-cleavage read?
A: Its self-cleavage is 0.599.

Q: For GGGGGCCACAGCAGAAGCGUUCACGUCGCGGCACCUGUCAGAUUCUGGUGAAUCUGCGAACUCUGCUGU [C33A U61C], which self-cleavage is on record?
A: The self-cleavage was 0.45.

Q: With GGGGGCCACAGCAGAAGCGUUCACGUCGCGGCACCUGUCAGAUUCUGGUGAAUCUUCGAAUUCUGCUGU [C33A G56U] as the variant, how does the self-cleavage read?
A: Its self-cleavage is 0.756.

Q: For GGGGGCCACAGCAGAAGCGUUCACGUCGCGGCACCUGUCAGAUUCUGGUGAAUCUCCGAAUUCUGCUGU [C33A G56C], which self-cleavage is on record?
A: Its self-cleavage is 0.488.

Q: For GGGGGCCACAGCAGAAGCGUUCACGUCGCGGCACCUGUCAGAUUCUGGUGAAUCUGCGAAUUCUGCAGU [C33A U67A], which self-cleavage is on record?
A: The self-cleavage was 0.977.

Q: Which self-cleavage does the source give for GGGGGCCACAGCAGAAGCGUUCACGUCGCGGCACCUGUCAGAUUCUGGUGAAUCUGCGAAUUCUGCGGU [C33A U67G] here?
A: The self-cleavage was 1.01.

Q: With GGGGGCCACAGCAGAAGCGUUCACGUCGCGGCACCUGUCAGAUUCUGGUGAAUCUGCUAAUUCUGCUGU [C33A G58U] as the variant, how does the self-cleavage read?
A: Its self-cleavage is 0.881.

Q: For GGGGGCCACAGCAGAAGCGUUCACGUCGCGGCACCUGUCAGAUUCUGGUGAAUCUGCCAAUUCUGCUGU [C33A G58C], which self-cleavage is on record?
A: Its self-cleavage is 0.837.
